Assay results published in article doi:10.1101/2020.09.17.302869.
Read-outs that look alike come from different tables or passages of the source. Values belong to the binder of their own block, whether it stands above or below them.

How the values were obtained:
Assay in all cases: MST
[1] = target: sarco/endoplasmic reticulum Ca2+-ATPase (SERCA), native rabbit, detergent solubilized (rabbit) (UniProt P04191)
[2] = target: sarco/endoplasmic reticulum Ca2+-ATPase (SERCA), native rabbit, detergent solubilized (rabbit) (UniProt P04191); remark: listed apart in the source
[3] = target: sarco/endoplasmic reticulum Ca2+-ATPase (SERCA), native rabbit, detergent solubilized (rabbit) (UniProt P04191); remark: listed apart in the source

UniProt P04191, sequence (P04191 whole entry): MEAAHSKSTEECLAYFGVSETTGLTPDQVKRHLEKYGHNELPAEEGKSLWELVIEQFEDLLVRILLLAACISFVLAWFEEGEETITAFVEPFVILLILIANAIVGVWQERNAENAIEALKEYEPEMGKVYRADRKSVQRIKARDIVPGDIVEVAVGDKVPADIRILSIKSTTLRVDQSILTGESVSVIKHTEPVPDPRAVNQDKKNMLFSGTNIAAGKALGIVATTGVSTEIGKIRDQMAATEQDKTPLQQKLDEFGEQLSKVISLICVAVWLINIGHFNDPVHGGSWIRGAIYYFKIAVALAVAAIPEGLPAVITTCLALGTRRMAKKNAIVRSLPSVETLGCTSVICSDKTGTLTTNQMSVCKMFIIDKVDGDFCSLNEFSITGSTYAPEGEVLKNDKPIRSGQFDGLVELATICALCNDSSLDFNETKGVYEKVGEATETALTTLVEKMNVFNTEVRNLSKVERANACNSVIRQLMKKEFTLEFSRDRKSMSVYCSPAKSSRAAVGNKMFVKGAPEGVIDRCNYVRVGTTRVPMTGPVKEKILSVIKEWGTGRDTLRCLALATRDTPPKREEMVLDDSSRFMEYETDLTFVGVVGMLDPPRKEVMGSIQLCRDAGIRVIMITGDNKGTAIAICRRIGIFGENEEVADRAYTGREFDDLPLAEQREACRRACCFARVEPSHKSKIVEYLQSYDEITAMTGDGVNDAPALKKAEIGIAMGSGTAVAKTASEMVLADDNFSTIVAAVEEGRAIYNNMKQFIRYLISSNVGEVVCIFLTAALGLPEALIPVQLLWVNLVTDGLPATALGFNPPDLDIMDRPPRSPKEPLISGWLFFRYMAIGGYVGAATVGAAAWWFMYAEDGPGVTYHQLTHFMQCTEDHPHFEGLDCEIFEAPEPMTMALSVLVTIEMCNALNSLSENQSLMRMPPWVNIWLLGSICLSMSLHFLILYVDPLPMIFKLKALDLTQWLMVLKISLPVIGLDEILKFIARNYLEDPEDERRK

- fold loss of affinity on removal of residues 640-666 [1]: 10 fold
B1: rabbit HRC (458-640) (domain or fragment)
chain: GEEEDEDDDDEGEHHHVPHRGHRGHEEDDGGDDDDGDDSTENGHQAHRHQGHGKEEAEVTSDEHHHHVPDHGHQGHGDKEGEEEGVSTDHWHQVPRHAHHGPGGEEEGGEEELTVKAGHHVASHPPPGHRSREGHAEEHQTEVPGHHQHRMGDTDTSAERGHPASSPRQQGHPPEDTVHHHRG

- Kd [2]: 5600 nM
- Kd [1]: 140 nM
- fold decrease in affinity with increased KCl concentration [1]: > 100 fold
- fold decrease in affinity, 200 mM against 50 mM KCl [1]: > 300 fold
- Kd [3]: 500 to 1000 nM
B2: rabbit HRC (496-656) (domain or fragment)
chain: STENGHQAHRHQGHGKEEAEVTSDEHHHHVPDHGHQGHGDKEGEEEGVSTDHWHQVPRHAHHGPGGEEEGGEEELTVKAGHHVASHPPPGHRSREGHAEEHQTEVPGHHQHRMGDTDTSAERGHPASSPRQQGHPPEDTVHHHRGSLKEEVGPESPGPAGV

- fold reduction of affinity by C-terminal truncation [1]: > 1000 fold
B3: rabbit HRC (458-520) (domain or fragment)
chain: GEEEDEDDDDEGEHHHVPHRGHRGHEEDDGGDDDDGDDSTENGHQAHRHQGHGKEEAEVTSDE
